Results on one substance are retold here after patent US20120237496.

For data set [1], the system named is A-beta 1-40 (fluorescein/Lys-biotin labelled synthetic peptide).
For data set [2], the system named is GLP-1 (fluorescein/Lys-biotin labelled synthetic peptide).
Data set [3] relates to GIP (fluorescein/Lys-biotin labelled synthetic peptide).
Data set [4] deals with T1, Somatostatin 1-28 (fluorescein/Lys-biotin labelled synthetic peptide).
T1 sequence: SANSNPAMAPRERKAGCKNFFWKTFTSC

For data set [5], the system named is Glucagon (fluorescein/Lys-biotin labelled synthetic peptide).
Sequence of Glucagon (fluorescein/Lys-biotin labelled synthetic peptide) (chain, as listed by the source): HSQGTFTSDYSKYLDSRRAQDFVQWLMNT
The subject of data set [6] is Endothelin-1 (average of the 1a and 1b isoforms).
Data set [7] relates to Neurotensin (fluorescein/Lys-biotin labelled synthetic peptide).
Data set [8] concerns Bradykinin (fluorescein/Lys-biotin labelled synthetic peptide).
Data set [9] concerns Angiotensin (fluorescein/Lys-biotin labelled synthetic peptide).
The test system of data set [10] is T2, ANP (fluorescein/Lys-biotin labelled synthetic peptide).
T2 sequence: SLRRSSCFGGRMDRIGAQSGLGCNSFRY

Sequence of A-beta 1-40 (fluorescein/Lys-biotin labelled synthetic peptide) (peptide, as listed by the source): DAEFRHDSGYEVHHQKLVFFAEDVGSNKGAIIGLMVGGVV
Sequence of GLP-1 (fluorescein/Lys-biotin labelled synthetic peptide) (chain, as listed by the source): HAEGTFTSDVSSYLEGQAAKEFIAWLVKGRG
Sequence of GIP (fluorescein/Lys-biotin labelled synthetic peptide) (chain, as listed by the source): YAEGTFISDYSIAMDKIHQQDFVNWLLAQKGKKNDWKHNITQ

Take HSA-Nep-G399V/G714K: the kcat/KM came to 55000 M⁻¹ s⁻¹ in data set [1]; 36000 M⁻¹ s⁻¹ in data set [2]; 130 M⁻¹ s⁻¹ in data set [3]; 3000 M⁻¹ s⁻¹ in [4]; 88000 M⁻¹ s⁻¹ in [5]; 62000 M⁻¹ s⁻¹ in [6]. Further, the kcat/KM in [7] is 2600 M⁻¹ s⁻¹; in data set [8], 85 M⁻¹ s⁻¹; in data set [9] it was 14000 M⁻¹ s⁻¹; in [10] it was 42000 M⁻¹ s⁻¹. The ratio of kcat/KM, mutant vs wild type in [1] was determined as 4.2; in data set [2], 0.25; in [3], 0.28; in data set [4], 0.0054; in data set [5], 0.35; in [6], 0.21. Moreover, the ratio of kcat/KM, mutant vs wild type was 0.004 in [7], 0.00017 in [8], 0.012 in [9] and 0.15 in data set [10].
